Laboratory results: publication PMC7126280 (Structure (London, England : 1993), 2006)

Target: the molecule itself
Assay: AUC + other: dynamic light scattering

B1: SARS-CoV ORF-9b protein (natural protein)
chain: MDPNQTNVVPPALHLVDPQIQLTITRMEDAMGQGQNSADPKVYPIILRLGSQLSLSMARRNLDSLEARAFQSTPIVVQMTKLATTEELPDEFVVVTAK
- stoichiometry N: 2
